Residue numbers refer to the chain shown, from its start. Values belong to the binder of their own block, whether it stands above or below them.
What was measured:
[1] = target: human IGF1R extracellular domain, recombinant, His tag at C-terminus (human) (UniProt P08069); experiment: ELISA on ECD of IGF1R, bispecific form
[2] = target: human IGF1R, endogenous, on the surface of breast cancer cell lines (MCF-7, JIMT-1, BT474) (human) (UniProt P08069); experiment: FACS on MCF-7 cells, antibody 10 ug/mL (2nd Ab only 2.86, not treated 1.88)
[3] = target: human IGF1R, endogenous, on the surface of breast cancer cell lines (MCF-7, JIMT-1, BT474) (human) (UniProt P08069); experiment: FACS on MCF-7 cells (2nd Ab only 2.92)
[4] = target: human IGF1R extracellular domain, recombinant, His tag at C-terminus (human) (UniProt P08069); experiment: SPR (Biacore T200), His-tagged human IGF1R ECD captured by anti-his antibody on CM4 chip, bivalent model

B1: Hu3A9-C04 (bispecific antibody form of 1564 affinity variant C04) (bispecific antibody, part only; not given: humanized 3A9 IgG carrier, linker, not shown: another chain or arm of the molecule; a dimerising Fc or GST; large carriers; small tags and cut ends)
scFv: QSVLTQPPSASGTPGQRVTISCTGSSSNIGSNDVSWYQQLPGTAPKLLIYANSNRPSGVSDRFSGSKSGTSASLAISGLRSEDEADYYCGAWEQWLNGYVFGCGTKLTVLGGGGSGGGGSGGGGSGGGGSEVQLLESGGGLVQPGGSLRLSCAASGFTFSSYDMSWVRQAPGKCLEWVSAISYDNGNTYYADSVKGRFTISRDNSKNTLYLQMNSLRAEDTAVYYCAKGVLTTLMNWFDYWGQGTLVTVSS
- EC50 [1]: 0.107 nM
- GeoMean, Internalization at 37° C. [2]: 7.23

B2: C04 (1564 affinity variant) in bispecific antibody form, backbone not stated (bispecific antibody, not shown: small tags and cut ends)
scFv: B1 scFv
- GEOmean [3]: 3.88

Further lines, results first:

- GeoMean, Internalization at 37° C. [2]: 19.8
B3: hu3A9x1564_F06 (bispecific antibody: humanized 3A9 IgG with F06 scFv) (bispecific antibody, part only; not given: humanized 3A9 IgG carrier, linker, not shown: another chain or arm of the molecule; a dimerising Fc or GST; large carriers; small tags and cut ends)
scFv: B1 scFv with A91T, E93A, Q94G, W95S

- Kd [4]: 478 nM
B4: F06 IgG (anti-IGF1R clone F06, full IgG1 form) (antibody, from a related filing, V domains shown)
VH: EVQLLESGGGLVQPGGSLRLSCAASGFTFSSYDMSWVRQAPGKGLEWVSAISYDNGNTYYADSVKGRFTISRDNSKNTLYLQMNSLRAEDTAVYYCAKGVLTTLMNWFDYWGQGTLVTVSS
VL: QSVLTQPPSASGTPGQRVTISCTGSSSNIGSNDVSWYQQLPGTAPKLLIYANSNRPSGVPDRFSGSKSGTSASLAISGLRSEDEADYYCGTWAGSLNGYVFGGGTKLTVL

From patent US20220348665A1
